Measured values from the supplement of paper PMC3353916.
± gives the standard deviation of the averaged measurements.

Tested on: Sindbis virus TE/5'2J-GFP
Assay: percent infected (GFP+ in RFP+ ISG-expressing cells); higher = more infection (less antiviral activity)
Procedure: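 Confirmatory testing of 87 ISGs. Triplicate wells of BHK/HA-Zeo (control) or BHK/NZAP-Zeo (ZAP) cells were transduced with lentiviruses co-expressing a human ISG plus TagRFP, then infected 48 h later with SINV TE/5'2J-GFP (moi 5). The % GFP+ cells among RFP+ cells was measured by flow cytometry at 8 h post infection. Fluc lentivirus served as control. Three independent experiments.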

[1] = experiment: confirmatory screen 1, BHK/HA-Zeo (control)
[2] = experiment: confirmatory screen 1, BHK/NZAP-Zeo (ZAP)
[3] = experiment: confirmatory screen 2, BHK/HA-Zeo (control)
[4] = experiment: confirmatory screen 2, BHK/NZAP-Zeo (ZAP)
[5] = experiment: confirmatory screen 3, BHK/HA-Zeo (control)
[6] = experiment: confirmatory screen 3, BHK/NZAP-Zeo (ZAP)
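Note: Interferon-defective BHK-21 derivatives, ZAP line overexpressing the rat ZAP N-terminal zinc finger domain fused to Zeocin resistance, GFP scored within live singlet TagRFP+ cells.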

Sequence | percent infected [1] [%] | percent infected [2] [%] | percent infected [3] [%] | percent infected [4] [%] | percent infected [5] [%] | percent infected [6] [%]
MEKLLCFLVLTSLSHAFGQTDMSRKAFVFPKESDTSYVSLKAPLTKPLKAFTVCLHFYTELSSTRGYSIFSYATKRQDNEILIFWSKDIGYSFTVGGSEILFEVPEVTVAPVHICTSWESASGIVEFWVDGKPRVRKSLKKGYTVGAEASIILGQEQDSFGGNFEGSQSLVGDIGNVNMWDFVLSPDEINTIYLGGPFSPNVLNWRALKYEVQGEVFTKPQLWP [CRP] | 94.7 ± 1.9 | 71.6 ± 4 | 95.07 ± 0.27 | 94.33 ± 0.72 | 89.4 ± 1.5 | 92.68 ± 0.15
MELRSYQWEVIMPALEGKNIIIWLPTGAGKTRAAAYVAKRHLETVDGAKVVVLVNRVHLVTQHGEEFRRMLDGRWTVTTLSGDMGPRAGFGHLARCHDLLICTAELLQMALTSPEEEEHVELTVFSLIVVDECHHTHKDTVYNVIMSQYLELKLQRAQPLPQVLGLTASPGTGGASKLDGAINHVLQLCANLDTWCIMSPQNCCPQLQEHSQQPCKQYNLCHRRSQDPFGDLLKKLMDQIHDHLEMPELSRKFGTQMYEQQVVKLSEAAALAGLQEQRVYALHLRRYNDALLIHDTVRAVDALAALQDFYHREHVTKTQILCAERRLLALFDDRKNELAHLATHGPENPKLEMLEKILQRQFSSSNSPRGIIFTRTRQSAHSLLLWLQQQQGLQTVDIRAQLLIGAGNSSQSTHMTQRDQQEVIQKFQDGTLNLLVATSVAEEGLDIPHCNVVVRYGLLTNEISMVQARGRARADQSVYAFVATEGSRELKRELINEALETLMEQAVAAVQKMDQAEYQAKIRDLQQAALTKRAAQAAQRENQRQQFPVEHVQLLCINCMVAVGHGSDLRKVEGTHHVNVNPNFSNYYNVSRDPVVINKVFKDWKPGGVISCRNCGEVWGLQMIYKSVKLPVLKVRSMLLETPQGRIQAKKWSRVPFSVPDFDFLQHCAENLSDLSLD [DHX58] | 95 ± 1.5 | 75.7 ± 2.1 | 95.81 ± 0.69 | 95.7 ± 0.2 | 94.51 ± 0.49 | 94.61 ± 0.18
MEQHFLGCVKRAWDSAEVAPEPQPPPIVSSEDRGPWPLPLYPVLGEYSLDSCDLGLLSSPCWRLPGVYWQNGLSPGVQSTLEPSTAKPTEFSWPGTQKQQEAPVEEVGQAEEPDRLRLQQLPWSSPLHPWDRQQDTEVCDSGCLLERRHPPALQPWRHLPGFSDCLEWILRVGFAAFSVLWACCSRICGAKQP [C5orf39] | 76.7 ± 4.1 | 9.13 ± 2.2 | 93.67 ± 0.59 | 89.88 ± 0.14 | 75.4 ± 1.5 | 50.1 ± 3
MERISAFFSSIWDTILTKHQEGIYNTICLGVLLGLPLLVIITLLFICCHCCWSPPGKRGQQPEKNKKKKKKKKKKDEEDLWISAQPKLLQMEKRPSLPV [KIAA0040] | 93.9 ± 2.6 | 62.7 ± 0.84 | 96.75 ± 0.12 | 95.133 ± 0.042 | 87.2 ± 1.7 | 87.8 ± 1.6
MEVTTRLTWNDENHLRKLLGNVSLSLLYKSSVHGGSIEDMVERCSRQGCTITMAYIDYNMIVAFMLGNYINLHESSTEPNDSLWFSLQKKNDTTEIETLLLNTAPKIIDEQLVCRLSKTDIFIICRDNKIYLDKMITRNLKLRFYGHRQYLECEVFRVEGIKDNLDDIKRIIKAREHRNRLLADIRDYRPYADLVSEIRILLVGPVGSGKSSFFNSVKSIFHGHVTGQAVVGSDITSITERYRIYSVKDGKNGKSLPFMLCDTMGLDGAEGAGLCMDDIPHILKGCMPDRYQFNSRKPITPEHSTFITSPSLKDRIHCVAYVLDINSIDNLYSKMLAKVKQVHKEVLNCGIAYVALLTKVDDCSEVLQDNFLNMSRSMTSQSRVMNVHKMLGIPISNILMVGNYASDLELDPMKDILILSALRQMLRAADDFLEDLPLEETGAIERALQPCI [IFI44L] | 94.86 ± 0.39 | 67.5 ± 2.4 | 96.87 ± 0.21 | 94.83 ± 0.34 | 83.6 ± 1.6 | 85.31 ± 0.85
MFAKGKGSAVPSDGQAREKLALYVYEYLLHVGAQKSAQTFLSEIRWEKNITLGEPPGFLHSWWCVFWDLYCAAPERRDTCEHSSEAKAFHDYSAAAAPSPVLGNIPPNDGMPGGPIPPGFFQGPPGSQPSPHAQPPPHNPSSMMGPHSQPFMSPRYAGGPRPPIRMGNQPPGGVPGTQPLLPNSMDPTRQQGHPNMGGSMQRMNPPRGMGPMGPGPQNYGSGMRPPPNSLGPAMPGINMGPGAGRPWPNPNSANSIPYSSSSPGTYVGPPGGGGPPGTPIMPSPADSTNSSDNIYTMINPVPPGGSRSNFPMGPGSDGPMGGMGGMEPHHMNGSLGSGDIDGLPKNSPNNISGISNPPGTPRDDGELGGNFLHSFQNDNYSPSMTMSV [SSBP3] | 63.1 ± 3.4 | 3.95 ± 1.2 | 94.42 ± 0.81 | 95.08 ± 0.28 | 83.27 ± 0.48 | 54.1 ± 14
MGAQLCFEANAKAPREALRFHAEAKGAQVRLDTRGCIAHRRTTFHDGIVFSQRPVRLGERVALRVLREESGWCGGLRVGFTRLDPACVSVPSLPPFLCPDLEEQSPTWAAVLPEGCALTGDLVRFWVDRRGCLFAKVNAGCRLLLREGVPVGAPLWAVMDVYGTTKAIELLDPTASRLPTPMPWDLSNKAVPEPKATPGEECAICFYHAANTRLVPCGHTYFCRYCAWRVFSDTAKCPVCRWQIEAVAPAQGPPALRVEEGS [LINCR] | 97.12 ± 0.12 | 85 ± 1.6 | 94.5 ± 0.3 | 94.39 ± 0.54 | 91.97 ± 0.65 | 93.27 ± 0.19
MGERTLHAAVPTPGYPESESIMMAPICLVENQEEQLTVNSKALEILDKISQPVVVVAIVGLYRTGKSYLMNRLAGKRNGFPLGSTVQSETKGIWMWCVPHLSKPNHTLVLLDTEGLGDVEKSNPKNDSWIFALAVLLSSSFVYNSVSTINHQALEQLHYVTELAELIRAKSCPRPDEAEDSSEFASFFPDFIWTVRDFTLELKLDGNPITEDEYLENALKLIPGKNPKIQNSNMPRECIRHFFRKRKCFVFDRPTNDKQYLNHMDEVPEENLERHFLMQSDNFCSYIFTHAKTKTLREGIIVTGKRLGTLVVTYVDAINSGAVPCLENAVTALAQLENPAAVQRAADHYSQQMAQQLRLPTDTLQELLDVHAACEREAIAVFMEHSFKDENHEFQKKLVDTIEKKKGDFVLQNEEASAKYCQAELKRLSEHLTESILRGIFSVPGGHNLYLEEKKQVEWDYKLVPRKGVKANEVLQNFLQSQVVVEESILQSDKALTAGEKAIAAERAMKEAAEKEQELLREKQKEQQQMMEAQERSFQEYMAQMEKKLEEERENLLREHERLLKHKLKVQEEMLKEEFQKKSEQLNKEINQLKEKIESTKNEQLRLLKILDMASNIMIVTLPGASKLLGVGTKYLGSRI [GBP4] | 95 ± 2.1 | 63 ± 6 | 95.8 ± 0.54 | 95.49 ± 0.44 | 94.22 ± 0.7 | 94.93 ± 0.31
MGILYSEPICQAAYQNDFGQVWRWVKEDSSYANVQDGFNGDTPLICACRRGHVRIVSFLLRRNANVNLKNQKERTCLHYAVKKKFTFIDYLLIILLMPVLLIGYFLMVSKTKQNEALVRMLLDAGVEVNATDCYGCTALHYACEMKNQSLIPLLLEARADPTIKNKHGESSLDIARRLKFSQIELMLRKAL [ANKRD22] | 96.94 ± 0.72 | 78.5 ± 1.2 | 96.41 ± 0.47 | 95.57 ± 0.16 | 93.15 ± 0.2 | 93.16 ± 0.36
MHLCGGNGLLTQTDPKEQQRQLKKQKNRAAAQRSRQKHTDKADALHQQHESLEKDNLALRKEIQSLQAELAWWSRTLHVHERLCPMDCASCSAPGLLGCWDQAEGLLGPGPQGQHGCREQLELFQTPGSCYPAQPLSPGPQPHDSPSLLQCPLPSLSLGPAVVAEPPVQLSPSPLLFASHTGSSLQGSSSKLSALQPSLTAQTAPPQPLELEHPTRGKLGSSPDNPSSALGLARLQSREHKPALSAATWQGLVVDPSPHPLLAFPLLSSAQVHF [BATF2] | 90.1 ± 2.7 | 63.14 ± 0.42 | 95.85 ± 0.33 | 94.92 ± 0.24 | 93.14 ± 0.36 | 91.04 ± 0.55
